In patent US20200247889A1 (published 2020):
Numbering of substitutions follows the chain as printed.

T1: mouse TREM1 (mouse, UniProt Q9JKE2 21-230)
T1 construct: whole, on cells; also called mTREM1
T1 sequence (looked up): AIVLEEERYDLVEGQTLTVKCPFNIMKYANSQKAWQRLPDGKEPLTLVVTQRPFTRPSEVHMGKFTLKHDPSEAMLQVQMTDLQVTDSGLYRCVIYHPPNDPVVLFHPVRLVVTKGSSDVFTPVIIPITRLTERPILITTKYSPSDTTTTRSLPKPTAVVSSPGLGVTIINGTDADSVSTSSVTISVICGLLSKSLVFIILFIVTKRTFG

T2: cynomolgus TREM1 (cynomolgus, UniProt A0A2K5VHG8 21-233)
T2 construct: whole, on cells; also called cTREM1
T2 sequence: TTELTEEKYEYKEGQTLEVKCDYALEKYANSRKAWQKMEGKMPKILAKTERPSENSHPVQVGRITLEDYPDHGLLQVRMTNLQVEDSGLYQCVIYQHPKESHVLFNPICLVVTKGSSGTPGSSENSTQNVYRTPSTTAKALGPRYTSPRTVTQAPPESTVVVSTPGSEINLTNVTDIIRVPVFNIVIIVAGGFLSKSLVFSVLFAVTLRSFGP

B1: Pi-9067L (antibody, mouse IgG2a, kappa, V domains shown)
VH: EVQLVESGGGLVQPGGSLRLSCAASGFDIYSYSIHWVRQAPGKGLEWVAYIYPSYGYTSYADSVKGRFTISADTSKNTAYLQMNSLRAEDTAVYYCARGAVAALDYWGQGTLVTVSS
VL: DIQMTQSPSSLSASVGDRVTITCRASQSVSSAVAWYQQKPGKAPKLLIYSASSLYSGVPSRFSGSRSGTDFTLTISSLQPEDFATYYCQQYGVSGYSLITFGQGTKVEIKR
notes: Anti-mouse TREM1; also called WT Pi-9067L; fucosylated PI-9067L
B2: Pi-4928 (antibody, mouse IgG2a, kappa, V domains shown)
VH: QVQLKESGPGLVQPSQTLSLTCTVSGFSITSSNVYWFRQPPGKGLEWMGNIWGDGSTDYNSSLKSRLTLSRDTSKNQVFLKINSLQSEDTATYFCTRSWEYYFDHWGQGVVVTVSS
VL: DIVLTQSPALAVSPGQRATLSCRASQSVTLSNVNLMNWYQQKPGQQPKLLIYHASNLASGIPTRFSGSGSGTDFTLTIDPVQADDIAAYYCQQSGESPRTFGGGTKVELKR
notes: Anti-mouse TREM1 mAb
B3: Pi-9772 (antibody, mouse IgG2a, kappa, V domains shown)
VH: EVQLVESGGGLVQPGGSLRLSCAASGFDLSYSSMHWVRQAPGKGLEWVAYISPYSGYTSYADSVKGRFTISADTSKNTAYLQMNSLRAEDTAVYYCARHGSWSYGFSSGFDYWGQGTLVTVSS
VL: DIQMTQSPSSLSASVGDRVTITCRASQSVSSAVAWYQQKPGKAPKLLIYSASSLYSGVPSRFSGSRSGTDFTLTISSLQPEDFATYYCQQYAYYYPITFGQGTKVEIKR
notes: Anti-mouse TREM1 mAb
B4: afucosylated Pi-9067L (antibody, mouse IgG2a, kappa, V domains shown)
VH: B1 VH
VL: B1 VL
modifications: afucosylated Fc glycan
notes: Same polypeptides as Pi-9067L, afucosylated; also called Afuc-Pi-9067L; Afuc-PI-9067L
B5: afucosylated Pi-9772 (antibody, mouse IgG2a, kappa, V domains shown)
VH: B3 VH
VL: B3 VL
modifications: afucosylated Fc glycan
B6: afucosylated Pi-4928 (antibody, mouse IgG2a, kappa, V domains shown)
VH: B2 VH
VL: B2 VL
modifications: afucosylated Fc glycan
B7: Pi-9069L (antibody, mouse IgG2a, kappa, V domains shown)
VH: EVQLVESGGGLVQPGGSLRLSCAASGFDLYSSYIHWVRQAPGKGLEWVASIYPSYGYTYYADSVKGRFTISADTSKNTAYLQMNSLRAEDTAVYYCARSHSYVHGAMDYWGQGTLVTVSS
VL: B1 VL with G92W, V93W, S94V, G95P, Y96A, S97A, L98P
B8: Pi-8421 (antibody, V domains shown)
VH: EVQLVESGGGLVQPGGSLRLSCAASGFDISYSSIHWVRQAPGKGLEWVASIYSSYGSTYYADSVKGRFTISADTSKNTAYLQMNSLRAEDTAVYYCARYYYSHAGWYVSGYWPAIDYWGQGTLVTVSS
VL: DIQMTQSPSSLSASVGDRVTITCRASQSVSSAVAWYQQKPGKAPKLLIYSASSLYSGVPSRFSGSRSGTDFTLTISSLQPEDFATYYCQQSSYSLITFGQGTKVEIK

What was measured:
[1] = target: T1, mouse TREM1; test: flow cytometry cross-blocking on HEK293 cells over-expressing mouse TREM-1
Method: 100,000 HEK293 cells over-expressing mouse TREM-1 were plated in 96 well plates and dead cells were stained with Zombie Near Infrared (Biolegend, San Diego, Calif.). These cells were subsequently incubated with the indicated unconjugated anti-mouse TREM-1 antibodies at saturating concentrations for 15 mins on ice. Following incubation with these antibodies, cells were then stained with the indicated Alexa Fluor 647 conjugated antibodies for 30 mins on ice. The ability of conjugated antibodies to bind in the presence of unconjugated antibodies was assessed by Alexa 647 signal measured by flow cytometry (BD Fortessa X-14, BD Biosciences, San Jose, Calif.).
The sequences denote the linear amino acid stretches that comprise each domain and the numbering is according to UniProt sequence analysis and 3D modelling of mouse TREM1.

[2] = target: T1, mouse TREM1; test: flow cytometry on HEK293 cells over-expressing mouse TREM-1
Method: 100,000 HEK 293 parental or over-expressing mouse TREM-1 were plated in 96 well plates and dead cells were stained with Zombie Near Infrared (Biolegend, San Diego, Calif.). […] These primary unconjugated antibodies were detected with Alexa Fluor 647 conjugated anti-mouse Fcγ secondary antibodies (Jackson Immunoresearch, West Grove, Pa.). Alexa Fluor 647 signal was measured by flow cytometry (BD Fortessa X-14, BD Biosciences, San Jose, Calif.). EC50 values were calculated by curve fitting signal generated from antibodies binding to over-expressing cells over background fluorescence generated from HEK293 parental cells in Graphpad Prism (Graphpad Software, La Jolla, Calif.).

[3] = target: T1, mouse TREM1; test: in vivo receptor occupancy, flow cytometry of tumor cells
Method: CT26 (colon adenocarcinoma), LL/2 (lung adenocarcinoma), MC38 (colon adenocarcinoma), and RENCA (renal cell carcinoma) were harvested using StemPro Accutase Dissociation reagent (Gibco Corporation), washed in PBS and subcutaneously injected to female C57BL/6 (Jackson Laboratories) or BALB/c (Taconic Biosciences) mice at a dose between 8×10⁵-1×10⁶ cells in the right ventral flank. […] Antibody treatments were 15 mg/kg for both arms and mice were treated twice at the indicated time points. 48 hr after the second dose, mice were euthanized and the tumor and blood were harvested for immune population analysis and expression of TREM1. Immune population and expression analyses were performed by flow cytometry (BD Fortessa X-14, BD Biosciences).

[4] = target: T2, cynomolgus TREM1; test: flow cytometry on HEK293 cells over-expressing cynomolgus TREM-1
Method: Titrations of indicated unconjugated antibodies were incubated with these cells within a range of 0 ug/ml to 30 ug/ml in a 1:4 or 1:5 dilution range across 8 points. […] EC50 values were calculated by curve fitting signal generated from antibodies binding to over-expressing cells over background fluorescence generated from HEK293 parental cells in Graphpad Prism (Graphpad Software).

| Binder | binding result [1] | binding result [2] | further results |
| --- | --- | --- | --- |
| B1 | binds | – | – |
| B2 | binds | – | – |
| B3 | binds | – | – |
| B4 | – | binds | – |
| B5 | – | binds | – |
| B6 | – | binds | – |
| B7 | – | – | binding result [3]: binds |
| B8 | – | – | binding result [4]: no binding (tested: titrated within 0 ug/ml to 30 ug/ml) |
